Assay results from PMC3175028 (2011).

Legend:
[1] = target: T1, hedKR (Streptomyces griseoruber, UniProt Q67G28); test: steady-state kinetics of reduction; assay type: biochemical
[2] = tested on: O[C@H]1CCCc2ccccc21; test: steady-state kinetics of oxidation, A340; assay type: biochemical, Streptomyces griseoruber; conditions: NADP+
[3] = target: T1, hedKR; test: […] Å co-crystal structure; assay type: binding
[4] = target: T1, hedKR; test: steady-state inhibition kinetics of trans-1-decalone reduction; assay type: biochemical

Compound | Km [2] [µM] | kcat [2] [s⁻¹] | kcat/Km [2] [M⁻¹ s⁻¹] | other results
O=C1CCC[C@H]2CCCC[C@H]12 (relative stereo) [trans-1-decalone] |  |  |  | Km [1]: 591 ± 147 µM
hedKR (Streptomyces griseoruber; N92L) | 4320 ± 521 | 0.169 ± 0.00653 | 39.1 ± 4.96 | 
NC(=O)C1=CN([C@@H]2O[C@H](COP(=O)(O)OP(=O)(O)OC[C@H]3O[C@@H](n4cnc5c(N)ncnc54)[C@H](OP(=O)(O)O)[C@@H]3O)[C@@H](O)[C@H]2O)C=CC1 [NADPH] |  |  |  | 2.4 Å co-crystal structure [3]: There is clear electron density for NADPH in each monomer of the crystal structure.
O=c1c(O)c(-c2ccc(O)c(O)c2)oc2cc(O)cc(O)c12 [compound 22, quercetin] |  |  |  | Ki [4]: ~114 µM
hedKR (Streptomyces griseoruber; N92P) | 14100 ± 1360 | 0.0323 ± 0.00166 | 2.29 ± 0.249 | 
